This is an account of results in paper doi:10.1101/2022.08.25.505150 (bioRxiv, 2022).

Data set [1] concerns the target 6His-PilC (Streptococcus sanguinis 2908). Briefly: ITC. (In general: In ITC the heat of successive injections is recorded.)
Data set [2] has the same target. Briefly: SEC-MALS.
The data set “SEC-MALS” concerns the molecule itself. Briefly: SEC-MALS. On the technique in general: SEC sorts molecules by how far they enter the pores of the column.

Regarding “6His-PilA (from UniProt A0A0B7GNW3 33-164) (domain or fragment)”, the Kd – broadly, the free concentration of one partner at which half of the binding sites on the other are occupied at equilibrium, for simple one-to-one binding – in data set [1] is 23.8 nM. Also, in data set [2], the stoichiometry N (commonly the number of molecules, sites or subunits per partner or assembly) stood at 1.
In the case of “PilA_(T95A) (from UniProt A0A0B7GNW3 33-164) (domain or fragment)”, the % of the wild-type binding (KD ratio to the WT) in data set [1] is 38.3%.

B1: 6His-PilA (domain or fragment, Streptococcus sanguinis 2908, UniProt A0A0B7GNW3 33-164, looked up)
chain: DTGQSQTQRMYNYLKAKYTATSGTQLAWGAYLDPVDGNPSSVYAEFDERAHNVDPSTEPIKSTHTFKDGSVAEIEMNGQLVDGLTGPENYNITIKSKSKLAGSNDYYEHIVTFNFDTKGIRSEEGHLRSAQK
In the case of B1, the “stoichiometry N” value in “SEC-MALS” was determined as 2.
